In US20200123233A1:

B1: LG212B12 (VHH)
VHH: EVQLVESGGGLVQPGGSLRLSCAASGFTFGNYDMSWVRQAPGKGPEWVSGINTGGSTLYADSVKGRFTISRDNAKNTLYLQMNSLKSEDTAVYYCAKDLYGSTWYTDYWSQGTQVTVSS
B2: LG212C12 (VHH)
VHH: EVQLVESGGGLVQPGGSLRLSCAASGFTFGSSDMSWVRQAPGKGPEWVSGINSGGGRTLYADSVKGRFTISRDNAKNTLYLQMNSLKSEDTAVYYCATDLYGSSWYTDYWSQGTQVTVSS
B3: LG212F6 (VHH)
VHH: EVQLVESGGGLVQPGGSLRLSCAASGFTFGSYDMSWVRQAPGKGSEWVSHINTGGGSTTYADSVKGRFTISRDNAKNTLYLQMSSLKPEDTAVYYCATGLYGGSTDDYWGQGTQVTVSS
B4: 213-E6 5GS 212-C12 (VHH)
chain: EVQLVESGGGLVQAGASLRLSCAASGSTLSRYGVGWFRQAPGKERELVASVDWSGSRTYYADSVKGRFTISRDNAKNTGYLQMNSLKPDDTAVYYCAADSSVVPGIEKYDDWGLGTQVTVSSGGGGSEVQLVESGGGLVQPGGSLRLSCAASGFTFGSSDMSWVRQAPGKGPEWVSGINSGGGRTLYADSVKGRFTISRDNAKNTLYLQMNSLKSEDTAVYYCATDLYGSSWYTDYWSQGTQVTVSS
B5: 213-E6 25GS 213-E6 (VHH)
chain: EVQLVESGGGLVQAGASLRLSCAASGSTLSRYGVGWFRQAPGKERELVASVDWSGSRTYYADSVKGRFTISRDNAKNTGYLQMNSLKPDDTAVYYCAADSSVVPGIEKYDDWGLGTQVTVSSGGGGSGGGGSGGGGSGGGGSGGGGSEVQLVESGGGLVQAGASLRLSCAASGSTLSRYGVGWFRQAPGKERELVASVDWSGSRTYYADSVKGRFTISRDNAKNTGYLQMNSLKPDDTAVYYCAADSSVVPGIEKYDDWGLGTQVTVSS
B6: 214-F8 15GS 214-F8 (VHH)
chain: EVQLVESGGDLVQAGGSLRLSCVASGSTYSINAMGWYRQAPGKLRELVAAFRTGGSTDYADSVKGRFTISRDTAKNTVYLQMNSLKPEDTAVYYCNAEVIYYPYDYWGQGTQVTVSSGGGGSGGGGSGGGGSEVQLVESGGDLVQAGGSLRLSCVASGSTYSINAMGWYRQAPGKLRELVAAFRTGGSTDYADSVKGRFTISRDTAKNTVYLQMNSLKPEDTAVYYCNAEVIYYPYDYWGQGTQVTVSS
B7: 213-E6 25GS 212-C12 (VHH)
chain: EVQLVESGGGLVQAGASLRLSCAASGSTLSRYGVGWFRQAPGKERELVASVDWSGSRTYYADSVKGRFTISRDNAKNTGYLQMNSLKPDDTAVYYCAADSSVVPGIEKYDDWGLGTQVTVSSGGGGSGGGGSGGGGSGGGGSGGGGSEVQLVESGGGLVQPGGSLRLSCAASGFTFGSSDMSWVRQAPGKGPEWVSGINSGGGRTLYADSVKGRFTISRDNAKNTLYLQMNSLKSEDTAVYYCATDLYGSSWYTDYWSQGTQVTVSS

Biological target: Rabies virus glycoprotein G, Challenge Virus Standard (CVS)-11 strain (Rabies virus, strain CVS-11 (genotype 1 Lyssavirus)) (UniProt O92284)
Assay: cell-based or functional assay

Sequence of Rabies virus glycoprotein G, Challenge Virus Standard (CVS)-11 strain (Rabies virus, strain CVS-11 (genotype 1 Lyssavirus)) (O92284 20-524 limits assumed): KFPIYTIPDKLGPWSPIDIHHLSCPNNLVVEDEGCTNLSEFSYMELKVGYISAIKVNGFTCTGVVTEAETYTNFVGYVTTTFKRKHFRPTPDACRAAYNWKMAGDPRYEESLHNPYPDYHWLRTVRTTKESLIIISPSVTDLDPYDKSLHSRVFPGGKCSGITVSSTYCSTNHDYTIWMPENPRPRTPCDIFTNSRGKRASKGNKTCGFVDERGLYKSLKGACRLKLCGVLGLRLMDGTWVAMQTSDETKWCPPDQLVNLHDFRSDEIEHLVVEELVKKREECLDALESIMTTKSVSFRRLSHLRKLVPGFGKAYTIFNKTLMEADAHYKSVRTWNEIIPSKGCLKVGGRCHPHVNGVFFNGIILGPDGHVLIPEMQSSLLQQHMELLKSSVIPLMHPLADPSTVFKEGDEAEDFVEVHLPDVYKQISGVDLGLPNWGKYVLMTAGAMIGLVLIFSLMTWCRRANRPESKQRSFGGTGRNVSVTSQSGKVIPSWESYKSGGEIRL

Which results are given for B1?
CVS-11 neutralizing antibody titer (RFFIT), IU/mg: 20 IU/mg; CVS-11 neutralizing antibody titer (RFFIT), IU/ml: 31 IU/ml; CVS-11 neutralizing antibody titer (RFFIT), IU/µM: 0.3 IU/µM; CVS-11 neutralizing antibody titer (RFFIT), nM IC50: 101 nM

With B2 as the binder, how does the CVS-11 neutralizing antibody titer (RFFIT), IU/mg read?
The CVS-11 neutralizing antibody titer (RFFIT), IU/mg was 308 IU/mg.

What about the CVS-11 neutralizing antibody titer (RFFIT), IU/ml of the same binder?
The CVS-11 neutralizing antibody titer (RFFIT), IU/ml was 394 IU/ml.

And the CVS-11 neutralizing antibody titer (RFFIT), IU/µM?
The CVS-11 neutralizing antibody titer (RFFIT), IU/µM was 4.6 IU/µM.

And the CVS-11 neutralizing antibody titer (RFFIT), nM IC50?
The CVS-11 neutralizing antibody titer (RFFIT), nM IC50 was 7.55 nM.

For B3, which CVS-11 neutralizing antibody titer (RFFIT), IU/mg is on record?
The CVS-11 neutralizing antibody titer (RFFIT), IU/mg was 114 IU/mg.

And the CVS-11 neutralizing antibody titer (RFFIT), IU/ml?
The CVS-11 neutralizing antibody titer (RFFIT), IU/ml was 122 IU/ml.

And the CVS-11 neutralizing antibody titer (RFFIT), IU/µM?
The CVS-11 neutralizing antibody titer (RFFIT), IU/µM was 1.71 IU/µM.

And the CVS-11 neutralizing antibody titer (RFFIT), nM IC50?
The CVS-11 neutralizing antibody titer (RFFIT), nM IC50 was 17.7 nM.

Biological target: Rabies virus glycoprotein G, strain CVS-11 (Challenge Virus Standard-11, ATCC VR 959) (Rabies virus, strain CVS-11)
Assay: cell-based or functional assay

With B4 as the binder, how does the CVS neutralizing antibody titre (RFFIT): IU/mg read?
Its CVS neutralizing antibody titre (RFFIT): IU/mg is 385 IU/mg.

And the CVS neutralizing antibody titre (RFFIT): IU/ml?
Its CVS neutralizing antibody titre (RFFIT): IU/ml is 385 IU/ml.

What about the CVS neutralizing antibody titre (RFFIT): IU/nM of the same binder?
Its CVS neutralizing antibody titre (RFFIT): IU/nM is 10 IU/nM.

What about the CVS neutralizing antibody titre (RFFIT): nM IC50 of the same binder?
The CVS neutralizing antibody titre (RFFIT): nM IC50 was 3.21 nM.

And the Potency (IU/nM) increase versus monovalent?
Its Potency (IU/nM) increase versus monovalent is 6.3 fold.

B5 was tested. Which CVS neutralizing antibody titre (RFFIT): IU/mg did it give?
Its CVS neutralizing antibody titre (RFFIT): IU/mg is 300 IU/mg.

And the CVS neutralizing antibody titre (RFFIT): IU/ml?
Its CVS neutralizing antibody titre (RFFIT): IU/ml is 21 IU/ml.

And the CVS neutralizing antibody titre (RFFIT): IU/nM?
Its CVS neutralizing antibody titre (RFFIT): IU/nM is 8.29 IU/nM.

What about the CVS neutralizing antibody titre (RFFIT): nM IC50 of the same binder?
The CVS neutralizing antibody titre (RFFIT): nM IC50 was 3.76 nM.

What about the Potency (IU/nM) increase versus monovalent of the same binder?
Its Potency (IU/nM) increase versus monovalent is 6.4 fold.

B6 was tested. Which CVS neutralizing antibody titre (RFFIT): IU/mg did it give?
Its CVS neutralizing antibody titre (RFFIT): IU/mg is 650 IU/mg.

And the CVS neutralizing antibody titre (RFFIT): IU/ml?
The CVS neutralizing antibody titre (RFFIT): IU/ml was 13 IU/ml.

What about the CVS neutralizing antibody titre (RFFIT): IU/nM of the same binder?
Its CVS neutralizing antibody titre (RFFIT): IU/nM is 17.2 IU/nM.

What about the CVS neutralizing antibody titre (RFFIT): nM IC50 of the same binder?
Its CVS neutralizing antibody titre (RFFIT): nM IC50 is 1.79 nM.

What about the Potency (IU/nM) increase versus monovalent of the same binder?
Its Potency (IU/nM) increase versus monovalent is 63.7 fold.

Which results are given for B7?
CVS neutralizing antibody titre (RFFIT): IU/mg: 248 IU/mg; CVS neutralizing antibody titre (RFFIT): IU/ml: 1290 IU/ml; CVS neutralizing antibody titre (RFFIT): IU/nM: 6.7 IU/nM; CVS neutralizing antibody titre (RFFIT): nM IC50: 4.79 nM; Potency (IU/nM) increase versus monovalent: 4.2 fold
